Tests used:
[1] = Gel filtration chromatography (Superdex 75 HR 10/30), oligomeric structure; assay type: physicochemical; details: Superdex 75, Buffer A
Protocol: The peptides were dissolved in DMSO for 30 minutes and then ten fold diluted in buffer A at a final protein concentration of 5-10 μM. A 200 μl aliquot was loaded onto a Superdex 75HR 10/30 column and eluted at a rate of 0.4 ml/min.
Gel filtration analysis was performed with a Pharmacia Superdex 75 HR 10/30 column using a Waters 490 multiple wavelength UV absorbance detector and Hewlett Packard 3250 fluorescence detector. Data were collected with a Waters Maxima chromatography data system. The running buffer used was 50 mM Tris, 0.1 M NaCl, pH 7.4 (Buffer A) in the presence of 10% or 2% DMSO. The column was calibrated with the following molecular weight standards: thyroglobulin, bovine serum albumin, ovalbumin, soybean trypsin inhibitor, ubiquitin, aprotinin, and insulin β-chain. The peptides were detected by UV absorbance at 280 nm and by fluorescence at 482 and 520 nm for IAEDANS and FM respectively.

[2] = Denaturation (unfolding) of Aβ in DMSO monitored by tyrosine or AEDANS fluorescence; assay type: physicochemical
Protocol: FIG. 3 is a graph illustrating the unfolding of Aβ measured by tyrosine fluorescence and 1,5-IAEDANS fluorescence. […] The protein concentration was 5-10 μM of Aβ.
For refolding experiments, samples were incubated in 100% DMSO for 1 hour at room temperature, and refolding was initiated by ten or fifty times dilution of the solvent in Tris buffered solution. The concentration of peptide ranged between 3 and 10 μM.
Absorption measurements were measured with a Perkin Elmer Lambda 3B UV-Vis spectrophotometer. Fluorescence spectra (excitation band pass 4 nm; emission band pass 8 nm) were measured either on an Aminco SLM 48000 or a SPEX Fluorolog F112A spectrofluorometer. Intrinsic tyrosine fluorescence was measured from 285 to 400 nm upon excitation at 275 nm. […] The lifetime measurements for FM were acquired using the 488 nm line of argon ion laser for excitation using a multiharmonic frequency-domain spectrofluorometer (Aminco 48000S).

| Substance | elution position on gel filtration [1] | unfolding curve compared with AβC25-AEDANS [2] |
| --- | --- | --- |
| 14C-labeled Aβ 1-40: Aβ synthesized by incorporation of Fmoc-14C-Ala at position 2, 36 mCi/mmol | eluted at the position expected for a dimer | – |
| AβC4FM: Aβ with cys in position 4 and labeled with FM | – | identical unfolding curves |
| AβC7FM: Aβ with cys in position 7 and labeled with FM | – | identical unfolding curves |

Reference: patent US6770448B2, “Fluorescent amyloid Aβ peptides and uses thereof” (The Regents of the University of California, priority 1997, dated 2004)
